Measurements reported in patent publication US20220089730A1 (IMAGINAB, published 2022).

Legend:
[1] = molecular target: T1, PSMA (Prostate-Specific Membrane Antigen), glutamate carboxypeptidase 2 (Homo sapiens, UniProt Q04609 1-750); assay: flow cytometry (FACS) on C4-2 XCL cells
T1 construct: also called FOLH1; target antigen expressed on LNCaP-AR cells

[2] = molecular target: T1, PSMA (Prostate-Specific Membrane …); assay: flow cytometry (FACS) on LNCaP-AR cells and on C4-2 XCL cells

T1 sequence (Q04609 whole entry): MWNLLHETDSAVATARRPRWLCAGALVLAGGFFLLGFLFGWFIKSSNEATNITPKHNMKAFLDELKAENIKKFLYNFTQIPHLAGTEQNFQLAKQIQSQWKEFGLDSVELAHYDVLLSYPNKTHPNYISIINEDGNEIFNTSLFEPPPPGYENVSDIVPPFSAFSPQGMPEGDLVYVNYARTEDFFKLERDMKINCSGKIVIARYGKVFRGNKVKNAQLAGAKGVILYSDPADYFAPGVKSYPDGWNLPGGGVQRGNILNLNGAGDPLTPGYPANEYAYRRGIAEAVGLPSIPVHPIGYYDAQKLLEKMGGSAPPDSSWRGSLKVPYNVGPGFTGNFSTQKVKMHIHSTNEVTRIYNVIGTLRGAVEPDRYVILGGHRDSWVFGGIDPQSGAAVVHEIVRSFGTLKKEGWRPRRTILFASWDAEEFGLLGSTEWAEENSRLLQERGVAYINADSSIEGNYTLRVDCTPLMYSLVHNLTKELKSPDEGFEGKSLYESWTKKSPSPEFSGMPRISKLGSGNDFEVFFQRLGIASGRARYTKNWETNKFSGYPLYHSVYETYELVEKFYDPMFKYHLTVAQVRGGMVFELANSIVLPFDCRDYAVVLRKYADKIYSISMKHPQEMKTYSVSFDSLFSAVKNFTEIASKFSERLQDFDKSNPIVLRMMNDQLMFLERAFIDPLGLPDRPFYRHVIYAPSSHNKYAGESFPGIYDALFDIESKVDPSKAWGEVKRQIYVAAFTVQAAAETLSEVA

Row | Binder | binding result [1] | binding result [2]
1 | IAB2M γ2 EH1 (other, Anti-PSMA minibody: homodimer of scFv-hinge-CH3) DIVMTQSPSSLSASVGDRVTITCKASQDVGTAVDWYQQKPGKAPKLLIYWASTRHTGVPDRFTGSGSGTDFTLTISSLQPEDFADYFCQQYNSYPLTFGGGTKLEIKGSTSGGGSGGGSGGGGSSEVQLVQSGAEVKKPGASVKISCKTSGYTFTEYTIHWVKQASGKGLEWIGNINPNNGGTTYNQKFEDRATLTVDKSTSTAYMELSSLRSEDTAVYYCAAGWNFDYWGQGTTVTVSSERKCCVECPPCPGGGSSGGGSGGQPREPQVYTLPPSREEMTKNQVSLTCLVKGFYPSDIAVEWESNGQPENNYKTTPPMLDSDGSFFLYSKLTVDKSRWQQGNVFSCSVMHEALHNHYTQKSLSLSPGK | binds | 
2 | IAB2M γ1 EH1 (other, Anti-PSMA minibody: homodimer of scFv-hinge-CH3) DIVMTQSPSSLSASVGDRVTITCKASQDVGTAVDWYQQKPGKAPKLLIYWASTRHTGVPDRFTGSGSGTDFTLTISSLQPEDFADYFCQQYNSYPLTFGGGTKLEIKGSTSGGGSGGGSGGGGSSEVQLVQSGAEVKKPGASVKISCKTSGYTFTEYTIHWVKQASGKGLEWIGNINPNNGGTTYNQKFEDRATLTVDKSTSTAYMELSSLRSEDTAVYYCAAGWNFDYWGQGTTVTVSSEPKSCDKTHTCPPCGGGSSGGGSGGQPREPQVYTLPPSRDELTKNQVSLTCLVKGFYPSDIAVEWESNGQPENNYKTTPPVLDSDGSFFLYSKLTVDKSRWQQGNVFSCSVMHEALHNHYTQKSLSLSPGK |  | binds
3 | IAB2M γ1 EH2 (other, Anti-PSMA minibody: homodimer of scFv-hinge-CH3) DIVMTQSPSSLSASVGDRVTITCKASQDVGTAVDWYQQKPGKAPKLLIYWASTRHTGVPDRFTGSGSGTDFTLTISSLQPEDFADYFCQQYNSYPLTFGGGTKLEIKGSTSGGGSGGGSGGGGSSEVQLVQSGAEVKKPGASVKISCKTSGYTFTEYTIHWVKQASGKGLEWIGNINPNNGGTTYNQKFEDRATLTVDKSTSTAYMELSSLRSEDTAVYYCAAGWNFDYWGQGTTVTVSSEPKSSDKTHTCPPCGGGSSGGGSGGQPREPQVYTLPPSRDELTKNQVSLTCLVKGFYPSDIAVEWESNGQPENNYKTTPPVLDSDGSFFLYSKLTVDKSRWQQGNVFSCSVMHEALHNHYTQKSLSLSPGK |  | binds
